Data on two molecules can be found in patent publication US20200239586A1 (LA TROBE UNIVERSITY, published 2020).

Broadly, the koff is the rate constant with which the complex falls apart. One may read the kon as the rate constant with which the complex forms.

For assay [1], the target named is T1, Fn14 gene fragment RW125 on phage (human, UniProt Q9NP84 31-74).
T1 construct: not shown: M13 pIII coat protein (gene fragment library in pHENH6)
As to the kind of experiment: phage ELISA, Fn14 gene fragments on phage, CRCBT-06-001 wells versus blank wells.

For assay [2], the target named is T2, Fn14 gene fragment RW114 on phage (human, UniProt Q9NP84 31-70).
T2 construct: not shown: M13 pIII coat protein (gene fragment library in pHENH6)
T2 chain: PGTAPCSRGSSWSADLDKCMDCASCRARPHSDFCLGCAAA
The description is as above.

Assay [3] addresses T3, Fn14 gene fragment RW131 on phage (human, UniProt Q9NP84 23-69).
T3 construct: not shown: M13 pIII coat protein (gene fragment library in pHENH6)
T3 chain: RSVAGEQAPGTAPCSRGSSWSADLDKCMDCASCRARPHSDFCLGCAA
The description is as above.

In assay [4] the target is T4, Fn14 gene fragment RW95 on phage (human, UniProt Q9NP84 37-90).
T4 construct: not shown: M13 pIII coat protein (gene fragment library in pHENH6)
T4 sequence: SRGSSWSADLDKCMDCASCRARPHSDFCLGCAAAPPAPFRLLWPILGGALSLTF
Described as above.

The target in assay [5] is T5, Fn14 gene fragment RW120 on phage (human, UniProt Q9NP84 31-74).
T5 construct: not shown: M13 pIII coat protein (gene fragment library in pHENH6)
The assay is described as above.

Assay [6] has as its target T6, Fn14 gene fragment RW129 on phage (human, UniProt Q9NP84 32-74).
T6 construct: not shown: M13 pIII coat protein (gene fragment library in pHENH6)
The description is as above.

In assay [7] the target is T7, recombinant Fn14-Fc (human, UniProt Q9NP84 28-77).
T7 construct: also called native Fn14; not shown: Fc region (recognised by anti-human Fc)
T7 sequence (Q9NP84 28-77): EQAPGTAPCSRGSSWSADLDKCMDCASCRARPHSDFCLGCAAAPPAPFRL
The experiment in a line: SPR (ProteOn XPR36), mAb captured on anti-mouse IgG, Fn14-Fc analyte, bivalent analyte fit. The procedure: The interaction of mouse anti-Fn14 IgG monoclonal antibodies CRCBT-06-001 and CRCBT-06-002 with recombinant Fn14-Fc was measured using the Bio-Rad ProteOn XPR36 essentially as described by Nahshol et al., (2008). Briefly, a GLM ProteOn sensor chip was activated by flowing a mixture of 0.2 M EDC and 0.05 M sulpho-NHS over the chip (150 μl at 30 μl/min for 5 minutes). Rabbit anti-mouse IgG whole molecule (Sigma M-7023) was then coupled to the chip in the vertical orientation by flowing 150 μl of a 50 μg/ml solution in 10 mM acetate buffer (pH 4.5) at 30 μl/min. The remaining coupling sites were then deactivated by flowing 150 μl of 1 M ethanolamine-HCl (pH 8.5) at 30 μl/min. Mouse anti-Fn14 IgG monoclonal antibodies were then bound to the coupled anti-mouse IgG antibody by flowing 150 μl of 100 μg/ml IgG at 25 μl/min over a single channel of the sensor chip in the horizontal direction. […] PBS Tween 20 (0.005%) alone was passed over the remaining channel. Binding sensorgrams were collected and analyzed with the ProteOn Manager 2.1 XPR36 software using the Langmuir or bivalent analyte kinetic models to fit the data and determine the affinity constant KD.
A Bio-Rad ProteOn XPR36 was used to determine the affinity of mouse monoclonal anti-Fn14 antibodies CRCBT-06-001 and CRCBT-06-002 to recombinant Fn14-Fc. It is clear that both antibodies tested display a high on-rate and a low off-rate. The ProteOn software was used to fit a curve to the sensorgram based on a mathematical model, enabling the kinetics of the interaction (ka, Kd and KD) to be calculated. A number of models can be used to fit the curves to the sensorgram, essentially the models used for each sensorgram were used as they provided the best fit, as evident by the low Chi² value obtained for the residuals.

In assay [8] the target is phage-displayed hFn14 mutant R56P (human, UniProt Q9NP84 28-77). As to the kind of experiment: phage ELISA, antibody on plate.
Chain of phage-displayed hFn14 mutant R56P (Q9NP84 28-77 R56P): as the sequence (Q9NP84 28-77) above, with R29P counted along it
Assay [9] addresses phage-displayed hFn14 mutant L77M (human, UniProt Q9NP84 28-76). The experiment in a line: phage ELISA, antibody on plate.
In assay [10] the target is phage-displayed hFn14 mutant T33N (human, UniProt Q9NP84 28-77). The experiment in a line: phage ELISA, antibody on plate. For orientation: ELISA stands for enzyme-linked immunosorbent assay.
Chain of phage-displayed hFn14 mutant T33N (Q9NP84 28-77 T33N): as the sequence (Q9NP84 28-77) above, with T6N counted along it
In assay [11] the target is phage-displayed hFn14 mutant R38S (human, UniProt Q9NP84 28-77). The experiment in a line: phage ELISA, antibody on plate.
Chain of phage-displayed hFn14 mutant R38S (Q9NP84 28-77 R38S): as the sequence (Q9NP84 28-77) above, with R11S counted along it
In assay [12] the target is phage-displayed hFn14 mutant A34S (human, UniProt Q9NP84 28-77). The experiment in a line: phage ELISA, antibody on plate.
Chain of phage-displayed hFn14 mutant A34S (Q9NP84 28-77 A34S): as the sequence (Q9NP84 28-77) above, with A7S counted along it

Chain of phage-displayed hFn14 mutant L77M (Q9NP84 28-77 L77M): as the sequence (Q9NP84 28-77) above, with L50M counted along it
T6 sequence (Q9NP84 32-74): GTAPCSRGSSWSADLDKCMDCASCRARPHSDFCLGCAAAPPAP

B1: CRCBT-06-001 (antibody, IgG2b, V domains shown)
VH: QVQLQQSGGGLVQPGGSMKLSCIASGFTFSSYWMSWVRQSPEKGLEWVAEIRSKSDNYATHYAESVKGKFTISRDDSKSRFFLQMNNLRAEDTGIYYCSSTYADYFHYWGQGTDLTVSS
VL: DIVMTQTPASLAVSLGQRATISCRASQSVSTSTYSYMHWYQQKPGQPPKLLIKYASSLESGVPARFSGSGSGTDFTLNIHPVEEDDTATYYCQHSWEIPYTFGGGTKLEIKR
For B1, the binding result in assay [1] is recorded as “binds”; in assay [2], “binds”; in assay [3], “binds”; in assay [4], “no binding”; in assay [5], “binds”; in [6], “binds”.

B2: CRCBT-06-002 (antibody, IgG1, V domains shown)
VH: EVKLQQSGGGLVQPGGSMKLSCVASGFTFSYYWMNWVRQSPEQGLEWIAEIRLQSNDYPTHYAESVKGRFTISRDDSKNSVYLQMNNLRPEDTGIYYCACRYADYFDHWGQGTTLTVSS
VL: DTVLTQSPASLVVSLGQRATISCRASQSVSTSDYSYIHWYQQKPGQPPKFLIKYASNRDSGVPARFSGSGSGTDFTLNIHPVEEDDTAIYYCQHSWEIPPTFGAGTKLELQR
For the molecule B2, the Kd in assay [7] came out at 935 pM. Moreover, the koff in [7] was 1.42e-05 s⁻¹. In addition, in assay [7], the on-rate (kon) turned out to be 15200 M⁻¹ s⁻¹. Moreover, the binding result in assay [8], in assay [9], in [10], in [11] and in assay [12] was “binds” in each case.
